Results published in PMC6565748, “Environmental pH and peptide signaling control virulence of Streptococcus pyogenes via a quorum-sensing pathway” (Nature Communications, 2019).
Where a SMILES comes first, the peptide text is derived from it. Where no end group is shown, it is not given here. The star is where a group is joined. FITC = O=C1OC2(c3ccc(O)cc3Oc3cc(O)ccc32)c2ccc(NC(=S)*)cc21

Key:
[1] = molecular target: regulator of proteinase B (RopB), full-length, wild type; experiment: FP assay; settings: for Kd: parent: 13 ± 0.3 nM
[2] = molecular target: synthetic SIP peptide containing fluorescein modification at its amino-terminus (FITC-SIP); experiment: FP assay; settings: for Kd: parent: 6.3 ± 0.5 nM
RopB = molecular target: T1, RopB (Streptococcus pyogenes, UniProt Q9FB04); experiment: Fluorescence polarization (FP) assay of RopB binding to fluoresceinated SIP peptides; settings: Fig. 3c; compared to SIP (SIP-WT)
T1 sequence (Q9FB04 1-280): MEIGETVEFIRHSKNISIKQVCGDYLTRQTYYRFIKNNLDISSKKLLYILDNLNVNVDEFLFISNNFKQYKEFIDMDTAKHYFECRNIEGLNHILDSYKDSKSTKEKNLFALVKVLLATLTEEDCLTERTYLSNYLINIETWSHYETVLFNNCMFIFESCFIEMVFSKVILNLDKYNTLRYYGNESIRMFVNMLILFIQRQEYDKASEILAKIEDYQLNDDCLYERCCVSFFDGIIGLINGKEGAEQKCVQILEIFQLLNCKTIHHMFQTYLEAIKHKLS
Experimental: The coding regions of the full-length and C-terminal domain (RopB–CTD) (amino acids 56–280) of ropB gene of strain MGAS10870 were cloned into plasmids pET-28a and pET-21b, respectively. Protein was overexpressed in E. coli strain BL21 (DE3). Protein overexpression and purification for both full-length RopB and RopB–CTD were carried out as described previously[37],[68]. The proteins were purified to >95% homogeneity and concentrated to a final concentration of ~ 20 mg/ml.
(§1) Fluorescence polarization-based RopB-ligand binding experiments were performed with a Biotek microplate reader (Biotek) using the […] fluorescence of fluorescein labeled DNA or synthetic peptides. The polarization (P) of the labeled DNA or synthetic peptides increases as a function of protein binding, and equilibrium dissociation constants were determined from plots of millipolarization (P × 10^–3) against protein concentration. For RopB–DNA-binding studies, 1 nM 5′-fluoresceinated oligoduplex in binding buffer (20 mM Tris–HCl pH 8.5, 200 mM NaCl, 1 mM TCEP and 25% DMSO) was titrated against increasing concentrations of purified RopB and the resulting change in polarization measured. Samples were excited at 490 nm and emission measured at 530 nm. […]

[3] = tested on: RopB–speB promoter interactions; experiment: FP assay of RopB–DNA binding in presence of SIP peptides; design: species or system Streptococcus pyogenes; settings: fluoresceinated oligoduplexes with RopB binding sites from speB promoter, RopB complexed with SIP peptide (Supplementary Fig. 8c, d)
Experimental: as §1, with “nm. The RopB-peptide-binding studies were performed in a peptide-binding buffer composed of 20 mM potassium phosphate pH 6.0, 75 mM Nacl, 2% DMSO, 1 mM EDTA and 0.0005% Tween 20. All data were plotted using KaleidaGraph and the resulting plots were fitted with the equation P = {(Pbound − Pfree)[protein]/(KD + [protein])} + Pfree, where P is the polarization measured at a given protein concentration, Pfree is the initial polarization of the free ligand, Pbound is the maximum polarization of specifically bound ligand and [protein] is the protein concentration. Nonlinear least squares analysis was used to determine Pbound, and Kd.” for “nm.”

[4] = tested on: speB expression in SIP* mutant strain; experiment: Synthetic peptide addition assay, speB transcript level by qRT-PCR in SIP* mutant strain; assay type: cell-based, Streptococcus pyogenes
Experimental: Synthetic peptides of high purity (>90% purity) obtained from Peptide 2.0 (Chantilly, VA) were suspended in 100% DMSO to prepare a 10 mM stock solution. Stock solutions were aliquoted and stored at −20 °C until use. Working stocks were prepared by diluting the stock solution in 25% DMSO.
GAS strains were grown to the indicated A600 and incubated with two volumes of RNAprotect (Qiagen) for 10 min at room temperature. RNA isolation and purification were performed with an RNeasy kit (Qiagen). After quality control analysis, cDNA was synthesized from the purified RNA using Superscript III (Invitrogen) and Taqman qRT-PCR was performed with an ABI 7500 Fast System (Applied Biosystems). Comparison of transcript levels was performed by the ∆CT method of analysis using tufA as the endogenous control gene[5],[78]. The primers and probes used for qRT-PCR are listed in Supplementary Table 2.

[5] = molecular target: synthetic SIP variant SIP-L6A (Streptococcus pyogenes); experiment: fluorescence polarisation; fluorescein labeled synthetic peptide titrated with purified RopB protein; 20 mM potassium phosphate pH 6.0, 75 mM NaCl, 2% DMSO, 1 mM EDTA, 0.0005% Tween 20
SpeBM = experiment: SpeB protease activity assay with SpeBZ-C192S zymogen as substrate; assay type: biochemical, Streptococcus pyogenes; settings: SDS-PAGE; 0.25 mg/ml C192S zymogen, 0.1 µg mature SpeB, different buffer pH
Experimental: Purified C192S was added to a final concentration of 0.25 mg/ml in reaction mixture containing 0.1 µg of mature SpeB in different buffer pH conditions. Aliquots were collected at indicated time points and reaction was stopped by adding SDS gel-loading buffer. Proteolytic processing of C192S zymogen into mature form was visualized by SDS-PAGE.

[6] = molecular target: T2, regulator of proteinase B (RopB), full-length, wild type (Streptococcus pyogenes (strain …)); experiment: FP; pH 5.5
T2 chain: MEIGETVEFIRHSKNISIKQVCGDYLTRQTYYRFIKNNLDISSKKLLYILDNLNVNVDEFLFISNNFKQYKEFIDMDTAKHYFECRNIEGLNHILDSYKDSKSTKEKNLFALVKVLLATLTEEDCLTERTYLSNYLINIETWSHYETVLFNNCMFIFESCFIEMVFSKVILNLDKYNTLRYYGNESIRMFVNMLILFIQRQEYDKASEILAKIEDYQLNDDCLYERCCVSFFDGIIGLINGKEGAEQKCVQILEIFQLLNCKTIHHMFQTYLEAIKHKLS

[7] = molecular target: T2, regulator of proteinase B (RopB), …; experiment: FP; pH 8.5
[8] = molecular target: T2, regulator of proteinase B (RopB), …; experiment: FP; pH 6.0
[9] = molecular target: T2, regulator of proteinase B (RopB), …; experiment: FP; pH 6.5
[10] = molecular target: T2, regulator of proteinase B (RopB), …; experiment: FP; pH 8.0
[11] = molecular target: T2, regulator of proteinase B (RopB), …; experiment: FP; pH 7.5
[12] = molecular target: T2, regulator of proteinase B (RopB), …; experiment: FP; pH 9.0
[13] = molecular target: T2, regulator of proteinase B (RopB), …; experiment: FP; pH 7.0

SpeB-inducing peptide (SIP), synthetic, unmodified L5A
ratio to parent [1]: 48
Kd [1]: 625 nM

regulator of proteinase B (RopB), full-length, wild type N152A
ratio to parent [2]: 28
Kd [2]: 243 nM

CSCC[C@H](N)C(=O)N[C@@H](Cc1c[nH]c2ccccc12)C(=O)N[C@@H](CC(C)C)C(=O)N[C@@H](CC(C)C)C(=O)N[C@@H](CC(C)C)C(=O)N[C@@H](C)C(=O)N[C@@H](Cc1ccccc1)C(=O)N[C@@H](CC(C)C)C(=O)O [SIP-L6A] (H-MWLLLAFL-OH; N-terminus and C-terminus assumed)
Fold change reduction in Kd (RopB): ~ 2.7
Effect on RopB–promoter (operator sequence) interactions [3]: WT-like binding to operator sequences
Ability to activate RopB-dependent speB expression ([4]; SIP addition assay, SIP* mutant strain, reference DMSO-supplemented strain (Fig. 3d)): partial activity

regulator of proteinase B (RopB), full-length, wild type (receptor)
fold reduction in binding affinity compared to SIP [5]: 2.7 fold

SpeB-inducing peptide (SIP), synthetic, unmodified L6A
Kd [1]: 36 nM

regulator of proteinase B (RopB), full-length, wild type R188A
ratio to parent [2]: 67
Kd [2]: 429 nM

CSCC[C@H](N)C(=O)N[C@@H](Cc1c[nH]c2ccccc12)C(=O)N[C@@H](CC(C)C)C(=O)N[C@@H](CC(C)C)C(=O)N[C@@H](CC(C)C)C(=O)N[C@@H](CC(C)C)C(=O)N[C@@H](Cc1ccccc1)C(=O)N[C@@H](CC(C)C)C(=O)O [SIP] (H-MWLLLLFL-OH; N-terminus and C-terminus assumed)
SIP-dependent speB expression (speB transcript level) ([4]; SIP* mutant strain at A600 ~1.7, THY broth adjusted to different pH, synthetic SIP, 1 h, relative to unsupplemented strain): maximal within a very narrow pH range (pH 5.5–6.0)
Ability to induce speB expression ([4]; SIP* mutant strain, THY pH 8, SIP added even at 100-fold excess, 1 h): lost the ability to induce speB expression

CC(C)C[C@H](NC(=O)[C@H]1O[C@@H]1C(=O)O)C(=O)NCCCCN=C(N)N [E64]
Proteolytic cleavage of SpeBZ-C192S by SpeBM (SpeBM): inhibited

SpeB-inducing peptide (SIP), synthetic, unmodified F7A
ratio to parent [1]: 11
Kd [1]: 142 nM

SpeB-inducing peptide (SIP), synthetic, unmodified L8A
ratio to parent [1]: 8
Kd [1]: 106 nM

regulator of proteinase B (RopB), full-length, wild type F155A
ratio to parent [2]: 5
Kd [2]: 33 nM

regulator of proteinase B (RopB), full-length, wild type N192A
ratio to parent [2]: 72
Kd [2]: 462 nM

SpeB-inducing peptide (SIP), synthetic, unmodified L3A
ratio to parent [1]: 41
Kd [1]: 534 nM

regulator of proteinase B (RopB), full-length, wild type M267A
ratio to parent [2]: 44
Kd [2]: 283 nM

SpeB-inducing peptide (SIP), synthetic, unmodified W2A
ratio to parent [1]: 44
Kd [1]: 570 nM

SpeB-inducing peptide (SIP), synthetic, unmodified M1A
ratio to parent [1]: 20
Kd [1]: 259 nM

SpeB-inducing peptide (SIP), synthetic, unmodified L4A
ratio to parent [1]: 27
Kd [1]: 358 nM

{FITC}-MWLLLLFL [synthetic SIP peptide containing fluorescein modification at its amino-terminus (FITC-SIP)]
Kd [6]: 5.4 nM
Kd [7]: 222 nM
Kd [8]: 1.8 nM
Kd [9]: 2.9 nM
Kd [10]: 78.6 nM
Kd [11]: 42.1 nM
Kd [12]: 320 nM
Kd [13]: 11.8 nM
